The results in this text go back to article PMC8876890, “Engineering Chimeras by Fusing Plant Receptor-like Kinase EMS1 and BRI1 Reveals the Two Receptors’ Structural Specificity and Molecular Mechanisms” (International Journal of Molecular Sciences, 2022).

The target of one experiment is T1, BSK1-His (UniProt Q944A7 1-512).
T1 construct: BSK1, receptor-like cytoplasmic kinase of subfamily RLCK-XII, full-length cDNA in pET-28a; The species is most likely Arabidopsis thaliana, the plant of the whole study; source: E. coli BL21 (DE3), purified (Ni-NTA Agarose)
Put plainly: pull-down; GST fusion proteins on Glutathione Sepharose 4B beads, incubated with BSK1-His or BSK3-His 4-6 h at 4 °C, washed 6-8 times with His lysis buffer; blot with His and GST antibodies. The following applies: both partners purified.

A further experiment has as its target T2, BSK3-His (UniProt Q8W4L3 1-489).
T2 construct: BSK3, receptor-like cytoplasmic kinase of subfamily RLCK-XII, full-length cDNA in pET-28a; The species is most likely Arabidopsis thaliana, the plant of the whole study; source: E. coli BL21 (DE3), purified (Ni-NTA Agarose)
The experiment is described as above. Conditions: both partners purified.

T1 sequence (Q944A7 whole entry): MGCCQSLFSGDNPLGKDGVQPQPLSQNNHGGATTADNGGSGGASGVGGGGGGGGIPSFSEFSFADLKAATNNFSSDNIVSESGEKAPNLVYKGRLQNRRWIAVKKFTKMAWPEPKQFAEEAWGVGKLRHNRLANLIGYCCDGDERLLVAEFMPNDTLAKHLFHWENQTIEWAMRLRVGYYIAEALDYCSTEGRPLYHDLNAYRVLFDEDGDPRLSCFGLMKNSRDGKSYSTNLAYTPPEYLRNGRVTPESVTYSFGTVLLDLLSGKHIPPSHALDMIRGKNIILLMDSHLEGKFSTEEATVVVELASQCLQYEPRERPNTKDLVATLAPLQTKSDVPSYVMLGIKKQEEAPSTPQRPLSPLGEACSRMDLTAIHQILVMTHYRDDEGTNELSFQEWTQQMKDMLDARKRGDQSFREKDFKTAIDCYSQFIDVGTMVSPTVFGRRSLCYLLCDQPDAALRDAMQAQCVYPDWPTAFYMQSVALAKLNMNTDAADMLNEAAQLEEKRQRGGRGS
T2 sequence (Q8W4L3 whole entry): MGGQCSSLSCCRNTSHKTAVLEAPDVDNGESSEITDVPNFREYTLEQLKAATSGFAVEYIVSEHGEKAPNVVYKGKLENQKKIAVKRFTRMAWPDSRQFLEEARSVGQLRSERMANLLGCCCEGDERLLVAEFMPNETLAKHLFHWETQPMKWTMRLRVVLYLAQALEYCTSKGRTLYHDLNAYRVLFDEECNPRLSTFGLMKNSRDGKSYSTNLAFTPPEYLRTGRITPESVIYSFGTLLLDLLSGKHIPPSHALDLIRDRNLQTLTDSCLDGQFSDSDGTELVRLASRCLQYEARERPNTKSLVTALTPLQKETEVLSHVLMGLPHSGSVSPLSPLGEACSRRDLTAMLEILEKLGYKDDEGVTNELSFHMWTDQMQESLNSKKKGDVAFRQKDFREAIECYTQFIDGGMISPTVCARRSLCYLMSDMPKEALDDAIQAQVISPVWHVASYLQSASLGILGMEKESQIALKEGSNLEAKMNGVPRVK

B1: GST-BRI1-CD (domain or fragment, Arabidopsis thaliana, UniProt O22476 814-1196, looked up)
chain: GREMRKRRRKKEAELEMYAEGHGNSGDRTANNTNWKLTGVKEALSINLAAFEKPLRKLTFADLLQATNGFHNDSLIGSGGFGDVYKAILKDGSAVAIKKLIHVSGQGDREFMAEMETIGKIKHRNLVPLLGYCKVGDERLLVYEFMKYGSLEDVLHDPKKAGVKLNWSTRRKIAIGSARGLAFLHHNCSPHIIHRDMKSSNVLLDENLEARVSDFGMARLMSAMDTHLSVSTLAGTPGYVPPEYYQSFRCSTKGDVYSYGVVLLELLTGKRPTDSPDFGDNNLVGWVKQHAKLRISDVFDPELMKEDPALEIELLQHLKVAVACLDDRAWRRPTMVQVMAMFKEIQAGSGIDSQSTIRSIEDGGFSTIEMVDMSIKEVPEGKL
notes: BRASSINOSTEROID … 1 (BRI1) LRR receptor-like kinase, Arabidopsis thaliana, cytoplasmic domain, residues 814-1196, cloned into pGEX-4T-3; also called cytoplasmic domain of BRI1; source: E. coli BL21 (DE3), purified (Glutathione Sepharose 4B)
Regarding B1, the binding result with BSK1-His and in the experiment with BSK3-His was “binds” throughout.

B2: GST-EMS1-CD (domain or fragment, Arabidopsis thaliana, UniProt Q9LYN8 849-1192, looked up)
chain: RRWAMTKRVKQRDDPERMEESRLKGFVDQNLYFLSGSRSREPLSINIAMFEQPLLKVRLGDIVEATDHFSKKNIIGDGGFGTVYKACLPGEKTVAVKKLSEAKTQGNREFMAEMETLGKVKHPNLVSLLGYCSFSEEKLLVYEYMVNGSLDHWLRNQTGMLEVLDWSKRLKIAVGAARGLAFLHHGFIPHIIHRDIKASNILLDGDFEPKVADFGLARLISACESHVSTVIAGTFGYIPPEYGQSARATTKGDVYSFGVILLELVTGKEPTGPDFKESEGGNLVGWAIQKINQGKAVDVIDPLLVSVALKNSQLRLLQIAMLCLAETPAKRPNMLDVLKALKEI
notes: EXCESS MICROSPOROCYTES1 (EMS1) LRR receptor-like kinase, Arabidopsis thaliana, cytoplasmic domain, residues 849-1192, cloned into pGEX-4T-3; also called cytoplasmic domain of EMS1; EMS1 kinase domain; source: E. coli BL21 (DE3), purified (Glutathione Sepharose 4B)
As for B2, the binding result with BSK1-His and with BSK3-His was “binds” in each case.
